The values below come from patent publication US20020132773A1, “Methods for reducing fat by administration of adiponectin” (Oklahoma Medical Research Foundation, priority 2001, published 2002).

One assay concerns BMS2 cells. The assay can be described thus: Adipocyte differentiation of BMS2 cells. The class given is cell-based. As to conditions: for fat cell formation (adipogenesis) of BMS2 cells: 5 μg/ml insulin and 0.5 mM MIBX, 10 days, proteins 10 μg/ml, PGE2 and Dup-697 1×10^-6 M, microscopy. The procedure: (§1) Differentiation of BMS2 cells to adipocytes was achieved by treatment with 5 μg/ml insulin and 0.5 mM MIBX for 10 days. Differentiation of MS5 cells to adipocytes was achieved by treatment with 5 μg/ml insulin alone for 15 days. Cultures were treated with adiponectin, PGE2 or Dup-697 from the time of culture initiation. At the end of this period, cultures were photographed and then stained with Nile red to detect lipid accumulation indicative of adipocyte differentiation. The extent of differentiation was estimated by flow cytometry (FACScan; Becton-Dickinson, San Jose, Calif.).

In a further assay the test system is 3T3-L1 cells. In words: Adipocyte generation by 3T3-L1 cell line. The class given is cell-based. The following applies: insulin as only inducing agent; adiponectin 10 μg/ml, PGE2 1×10^-6 M. From the text: Normal human bone marrow was collected by biopsy from the posterior iliac crest of healthy young volunteers with informed consent, and used for immunohistchemical analysis of adiponectin. BMS2 and 3T3-L1 cells were maintained in D-MEM (high glucose) supplemented with 10% fetal calf serum (FCS) (HyClone, Logan, Utah). MS5 cells were maintained in α-MEM medium supplemented with 10% FCS. Balb/c mice at 3-6 weeks old: were obtained from Charles Rivers Breeding Labatories (Wilmington, Me.). B6,129S-^Ptgs2tm1Jed (COX-2^+/−) mice and C57BL/6 mice (3-5 weeks old) were purchased from the Jackson Laboratory (Bar Harbor, Me.). High mortality and unavailability precluded use of homozygous COX^−/− animals in these experiments, but a single targeted allele abrogated preadipocyte responses to adiponectin.
Bone marrow cultures represent a complex mixture of hematopoietic cells that mature through interactions with an adherent stromal layer composed of fibroblasts, adipocytes, macrophages and endothelial cells.

Assay [1] relates to C/EBP-α and PPAR-γ in BMS2 preadipocytes. In words: Adipocyte gene expression analysis (Northern blot) in BMS2 cells. The class given is cell-based. The procedure: (§2) Poly(A)^+mRNA was prepared from the indicated samples using oligo(dT) columns (Ambion Inc, Austin, Tex.). Aliquots oifpoly(A)^+ mRNA (2 μg) were denatured in formamide and formaldehyde at 65 C and electrophoresed on formaldehyde-containing agarose gels. After capillary transfer to nylon membranes (MSI, Westbourough, Mass.), the RNA was crosslinked by UV exposure. cDNA probes for CCAAT/enhancer binding protein-α(C/EBP-α) and adipocyte P2 (aP2) were obtained from ResGen™ Invitrogen (Huntsville, Ala.) and American Type Culture Collection (Manassas, Va.) respectively. Probes with sizes corresponding to PPAR-γ, COX-1 and COX-2 were prepared as PCR products and all probes were radiolabeled with [α-^32P]dCTP using the random prime labeling system (Redi Prime™ II) purchased from Amersham Pharmacia Biotech.
as §1

Assay [2] relates to bone marrow cells of normal Balb/c mice (LTBMC). The assay can be described thus: Long-term bone marrow cultures (LTBMC, Dexter cultures). The class given is cell-based, mouse. How it is done:
LTBMC that support formation of myeloid cells (Dexter cultures) were initiated and maintained by published methods (Dexter, T. M. and Testa, N. G. Methods Cell Biol. 14:387-405 (1976)). Bone marrow cells of normal Balb/c mice (12×10^6) were cultured in 25-cm^2 flasks in 5% CO2 at 33 C. The medium consisted of α-MEM supplemented with 100 nM hydrocortisone and 20% horse serum (HyClone). Cultures were treated with adiponectin or bovine serum albumin (BSA) beginning at culture initiation and thereafter weekly for 6 weeks. In some experiments, adiponectin was omitted from the media after 6 weeks of culture, and maintained for another 6 weeks with medium alone.

The test system of the next assay is MS5 cells. In words: Adipocyte differentiation of MS5 cells. The following applies: 5 μg/ml insulin, 15 days; adiponectin 10 μg/ml. The class given is cell-based. The procedure: as §1
The test system of assay [3] is MS5 or BMS2 stromal cell clones. In words: RT-PCR / Northern blot of transcripts in adiponectin-treated preadipocytes. The class given is cell-based. The procedure:
Total RNA was isolated from MS5 or BMS2 cells treated with adiponectin for various periods using TRIzol Reagent (GIBCO-BRL, Grand Island, N.Y.) and suspended in DEPC-treated water. After treating total RNA with DNase (GIBCO-BRL), cDNA was made using random hexamers and moloney murine leukemia virus reverse transcriptase (GIBCO-BRL). For PCR, 10 μl of the RT mixtures described above were added to PCR buffer containing 1.5 mM MgCl2, 1 U Taq polymerase (Perkin Elmer, Norwalk, Conn.), 2 mM each dNTP, and relevant sense and antisense primers. The DNA in the PCR reaction mixtures was amplified using 25 to 35 cycles of 94 C for 1 min, 55 C for 2 min and 72 C for 3 min. The oligonucleotide primers used for these reactions were 5′-[…]-3′ (SEQ ID NO:5) and 5′-[…]-3′ (SEQ ID NO:6) for COX-2, and 5′-[…]-3′ (SEQ ID NO:7) and 5′-[…]-3′ (SEQ ID NO:8) for COX-1. Primers for TNF-α, TGF-β, interferon (IFN)-α/β/γ, and limitin were also prepared and used in this study.
as §2

The test system of the next assay is MS5 or BMS2 cells. In words: Enzyme-immunoassay for PGE2 in culture supernatants. The class given is cell-based. As to conditions: confluent BMS2 or MS5 cells, versus BSA. How it is done: Confluent MS5 or BMS2 cells prepared in 24-well plates were incubated in 500 μl of media with or without adiponectin. Supernatants from these cultures were examined for the presence of PGE2 using an enzyme-immunoassay kit purchased from Cayman Chemical.

For assay [4], the system named is normal C57BL/6 bone marrow. In words: Adherent bone marrow cell cultures, normal mice. The class given is cell-based, mouse. As to conditions: treated weekly for 6 weeks. The procedure: (§3) Adherent bone marrow cell cultures were established with heterozygous knockout COX-2^+/− mice or normal C57BL/6 mice. BM cells were suspended at 2×10^5 per 6 ml of Dexter culture media and seeded in 25-cm^2 flasks. This cell concentration gives rise to adherent stromal layers without myeloid cell growth. Cultures were treated with adiponecitin or BSA at the time of culture initiation and weekly thereafter for 6 weeks.

The test system of assay [5] is bone marrow cells of heterozygous knockout COX-2+/- mice. The assay can be described thus: Adherent bone marrow cell cultures, COX-2+/- mice. The class given is cell-based, mouse. As to conditions: cells derived from COX-2+/- animals, treated weekly for 6 weeks. How it is done: as §3
Assay [6] has as its system CFU-granulocyte-macrophage, CFU-macrophage, CFU-granulocyte, BFU-erythroid, mixed erythroid-myeloid CFU. As to conditions: cited from earlier work.
In the next assay the test system is myeloid cell lines. As to conditions: cited from earlier work.
The test system of another assay is cultured macrophages. The following applies: cited from earlier work.
Where [7] appears, read: BMS2 cells, Nile red staining, flow cytometry.

Entries after “also recorded” stand apart in the source; their conditions may differ.

As to `CCCCC[C@H](O)/C=C/[C@H]1[C@H](O)CC(=O)[C@@H]1C/C=C\CCCC(=O)O` [PGE2, prostaglandin E2, reference compound], in the assay with BMS2 cells, the “fat cell formation (adipogenesis) of BMS2 cells” value is recorded as “blocked”. The “lipid accumulation induced by insulin and MIBX” value in the assay on BMS2 cells (setting [7]) was “completely blocked”. In addition, the “generation of adipocytes by 3T3-L1 line” value in the assay with 3T3-L1 cells is reported as “minimally affected”. In addition, in assay [1], the “increases of C/EBP-α and PPAR-γ expression induced by insulin and MIBX” value was “strongly inhibited”.

B1: adiponectin: adipocyte-specific secretory protein of 244 amino acid residues; human recombinant peptide leader deficient protein, 32 kD monomer with multimers (protein)
chain: ETTTQGPGVLLPLPKGACTGWMAGIPGHPGHNGAPGRDGRDGTPGEKGEKGDPGLIGPKGDIGETGVPGAEGPRGFPGIQGRKGEPGEGAYVYRSAFSVGLETYVTIPNMPIRFTKIFYNQQNHYDGSTGKFHCNIPGLYYFAYHITVYMKDVKVSLFKKDKAMLFTYDQYQENNVDQASGSVLLHLEVGDQVWLQVYGEGERNGLYADNDNDSTFTGFLLYHDTN
Regarding B1, the “fat cell formation in LTBMC” value in assay [2] (adiponectin 10 μg/ml in medium, from culture initiation and weekly for 6 weeks) is recorded as “completely inhibited”. In addition, the “influence on myelopoiesis in LTBMC” value in assay [2] (adiponectin 10 μg/ml, conditions that favor myeloid cell production) is recorded as “no influence”. Also, the “reversibility of the negative influence on fat cell formation” value in assay [2] (adiponectin omitted after 6 weeks, another 6 weeks with medium alone) was “reversible”. For the same molecule, the “fat cell formation (adipogenesis) of BMS2 cells” value with BMS2 cells was “substantial suppression”. Further, the “fat cell formation (adipogenesis) of BMS2 cells” value in the assay on BMS2 cells (listed as Adiponectin) is recorded as “blocked adipogenesis”. Further, the “lipid accumulation induced by insulin and MIBX” value in the assay on BMS2 cells (setting [7]) is “completely blocked”. Moreover, in the assay on BMS2 cells (BMS2 cells, Nile red staining, flow cytometry, Dup-697 1×10^-6 M), the “response (block of lipid accumulation) to adiponectin with COX-2 inhibitor included” value is recorded as “substantially blocked”. In addition, the “inhibition of BMS2 fat cell formation by adiponectin with Dup-697 present” value in the assay on BMS2 cells (insulin and MIBX, COX-2 inhibitor Dup-697 1×10^-6 M present) is “not observed”. Besides, in the assay on MS5 cells, the “suppression of adipocyte differentiation of MS5 clone” value is on record as “substantial suppression”. Moreover, the “generation of adipocytes by 3T3-L1 line” value in the assay with 3T3-L1 cells is given as “only slightly inhibited; also recorded: minimally affected”. Also, in [3], the “basal expression of TGF-β, interferon-α/β/γ and limitin” value is recorded as “not obviously influenced”. In addition, the “transcripts corresponding to TNF-α or interferon-β” value in assay [3] (MS5 cells, adiponectin added to cultures) is “not detectable”. Besides, in assay [3] (MS5 or BMS2 stromal cell clones, confirmed by Northern blot), the “transcripts for COX-2” value is listed as “upregulated”. In addition, the “increase in PGE2 secretion” value in the assay on MS5 or BMS2 cells was “approximately two-fold”. Also, the “adipogenesis in adherent bone marrow cell cultures” value in assay [4] is listed as “blocked adipogenesis”. The “effect on adipogenesis in adherent bone marrow cell cultures” value in assay [5] is “minimum effect; also recorded: negligible”. Also, in assay [1], the “increases of C/EBP-α and PPAR-γ expression induced by insulin and MIBX” value is “strongly inhibited”. Moreover, the “effect of adiponectin on C/EBP-α and PPAR-γ expression with Dup-697” value in [1] (insulin and MIBX, Dup-697 1×10^-6 M) is “abrogated”. Also, in assay [6], the “colony formation from CFU-granulocyte-macrophage, CFU-macrophage and CFU-granulocyte” value was “suppresses colony formation”; the “colony formation of burst-forming units-erythroid or mixed erythroid-myeloid CFU” value was “no effect”. Further, in the assay on myeloid cell lines, the “number of myeloid cell lines whose proliferation is inhibited” value is 4 of 9. In addition, in the assay with cultured macrophages, the “lipopolysaccharide-induced production of tumor necrosis factor-α by cultured macrophages” value was “significantly inhibits” and the “phagocytic activity of cultured macrophages” value was “significantly inhibits”.
